# From the RNAGym collection of RNA variant scans (doi:10.7554/elife.90254)
# B1: LINE1-full (parent)
# chain: UACGUAGGUGGUUUUCCCCUGAUAGUGCUAAGGGGGCCUGGAAGUUUGGACUGGGCAGAGCUCAACACAGCGUGGCAAAGUGGCUGUGGCUAGACUGCCUCUCUGGAUUCCUCGUCACUCAGCAGGGCAUCUCUGAGAGAAAUGCC
# Variants of: B1
# Assay: self-cleavage, relative activity (ratio to wild type); higher = more cleavage; in vitro, sequencing; the parent is a self-cleaving ribozyme
row,Variant,self-cleavage
1,U102A A121G,1.64
2,U5A U100A,0.51
3,U104C U119G,0
4,C3U C123U,0.63
5,G114A A117U,1.34
6,U13C C18U,1.57
7,U12G U45C,1.48
8,G122C U134C,1.68
9,G35U A129G,1.57
10,U20A C66U,0.02
11,U14C C113A,1.19
12,U15C U143A,1.55
13,C37U U85A,0.05
14,A59G U130C,0.17
15,U1C U15A,0.81
16,C99U A107G,0.83
17,G7U C123U,1.39
18,U23C U81C,1.41
19,A22G A136C,1.49
20,C110U G127A,1.35
21,A92U U130C,0.73
22,A78G C95U,0.1
23,C71A A124G,0.13
24,U23C A140U,1.29

row,Variant,self-cleavage
1,A67G G89U,0.02
2,A57U A136C,0.1
3,U91C C128U,1
4,U12C G93A,0.08
5,A65G G114A,0.04
6,U14C C145A,1.28
7,U87C A124U,0.33
8,U45C A79U,1.92
9,U12G A142G,0.83
10,A79G U134A,1.07
11,U108C U143G,1.23
12,U81A U91C,0.77
13,U108A U115C,1.52
14,C120G A129G,1.23
15,U26C U112C,1.36
16,G60A A107G,0.03
17,C123U A138G,1.91
18,U9A C128U,0.9
19,U9A U14A,1.03
20,A50G U112C,0.73
21,C110A G139A,1.17
22,C110U A141U,0.84
23,U14C G105A,1.38
24,A65U A140G,0.26

row,Variant,self-cleavage
1,U104C C116U,1.91
2,C37G A121G,1.23
3,U47G A79U,2.35
4,G7U A65G,0.13
5,G53A A57G,0.73
6,U73A G139A,1.47
7,U100A A129U,1.25
8,A117U U132G,1.99
9,C17A A142C,1.9
10,U91C C133A,0.74
11,U73A G135A,1.66
12,U46C G48U,1.61
13,G7A A107G,1.22
14,A43G U52A,1.43
15,U132C A141G,1.46
16,A77U C146A,1.23
17,C56U U112A,0.1
18,U52C C99U,0.64
19,U5A A124U,1.2
20,U96C A138U,0.1
21,A65U A79G,0.21
22,U46A U52G,1.33
23,U96A C113U,0.06
24,U5A A31G,0.82

row,Variant,self-cleavage
1,A57G C120U,1.54
2,A67G C84G,0.04
3,G8A U104A,1.25
4,G4A A30G,0.59
5,U47C U115C,2.06
6,C37G A92G,0.04
7,G35C,1.31
8,U12C A140U,1.24
9,U46A U47C,1.13
10,U91G A94G,0
11,U85A U130C,0.1
12,U9G U45A,0.73
13,C98A C101U,0.09
14,C16U U119A,1.17
15,U73C U85G,0.21
16,G54C C61U,0.05
17,U13C A117U,1.07
18,U52A A57G,0.89
19,U12C U47G,1.21
20,U15C U115A,1.59
21,C38U U134A,1.23
22,G25U U45G,0.93
23,A67G A78G,0.27
24,G34A A50U,0.38

row,Variant,self-cleavage
1,C90G U134A,0.03
2,A42G U45A,1.4
3,U26G A142G,1.28
4,U100C G125C,1.89
5,U26C C101A,0.85
6,A6G U132C,0.9
7,G122A U130A,2.13
8,A30U A107G,1.28
9,C19U A57U,0.13
10,U13C C128U,0.78
11,G4U U45A,1.04
12,U109C U115C,1.22
13,U134A A141G,1.12
14,C28U A121G,0.66
15,A43G G74A,1.17
16,A22G G32A,0.57
17,C111U U130C,1.75
18,A107G G125U,1.96
19,A79G U112C,1.74
20,G83A U85G,0.1
21,U9A C61U,0.02
22,A31U U96A,0.07
23,U23A,1.3
24,A94U C101U,0.31

row,Variant,self-cleavage
1,G34U A69G,0.47
2,A69G U132C,0.71
3,U85C G137A,0.2
4,U15C A30U,0.5
5,U45A A50G,0.95
6,C63U U115C,0.32
7,U12G U29C,1.02
8,G54A U143A,0.45
9,U29A U119C,0.97
10,A43G U112A,1.4
11,U46G U73G,1.5
12,U20A U46C,1.49
13,C118U A138G,1.18
14,U12C A141U,0.87
15,U12C A141G,1.5
16,A59G U96C,0.04
17,G32C U109A,1.56
18,U20A A59G,0.15
19,C3U A124U,1
20,A30G A50U,0.89
21,A77G U134C,2.54
22,U46C U47C,1.95
23,U20C C118U,1.2
24,C19U A22U,1.11

row,Variant,self-cleavage
1,A42U U119C,1.73
2,G49C A141U,1.55
3,A57C U104A,0.18
4,U12C A69C,0.09
5,A30U C90G,0.09
6,G126A C133A,1.7
7,G70U C90G,0.02
8,U26A U143C,0.86
9,U15C U134A,1.04
10,A50G A107U,1.24
11,A50C G82A,2.06
12,U13A U132A,0.87
13,C16U A121U,1.36
14,A42G U130C,1.57
15,C18U C113U,0.75
16,A22U U29C,1.24
17,U81A A141G,1.85
18,C3U U119A,0.83
19,A31G A129U,0.84
20,U12C G40U,1.2
21,G54U A92G,0.08
22,U96C A124U,0.14
23,C103U U134C,1.48
